Laboratory results as given in article PMC9231606, “Membrane insertion mechanism of the caveola coat protein Cavin1” (Proceedings of the National Academy of Sciences of the …, 2022).

Target: the molecule itself
Assay: mass photometry; sample 25 to 100 nM in a gasket well on glass coverslips, acquisition for 60 s; mass from contrast comparison with bovine serum albumin calibrants

B1: Cavin1 (1–190) (domain or fragment, UniProt O54724 1-190, looked up)
chain: MEDVTLHIVERPYSGFPDASSEGPEPTQGEARATEEPSGTGSDELIKSDQVNGVLVLSLLDKIIGAVDQIQLTQAQLEERQAEMEGAVQSIQGELSKLGKAHATTSNTVSKLLEKVRKVSVNVKTVRGSLERQAGQIKKLEVNEAELLRRRNFKVMIYQDEVKLPAKLSVSKSLKESEALPEKEGDELGE
notes: Cavin1, residues 1 to 190 (DR1 1–43, HR1 45–155, DR2 156–190); By mass photometry it was detected as trimers and also as monomers; also called N-terminal part (residues 1 to 190); DR1–HR1–DR2; source: E. coli Rosetta pLysS or BL21(DE3)pLysS, purified (TALON Superflow, gel filtration on Sephacryl S-300 HR)
**Q.** For B1, which “stoichiometry N” value is on record?
**A.** 3
